This is an account of results in PMC11349758.

One assay addresses STAT5B (UniProt P42232). Description: anti-STAT5A IP, anti-STAT5B blot. To be noted: reference: WT T cells, IL-2 stimulated; sites Y694.
In another assay the target is STAT5A (UniProt P42230). Description: anti-STAT5A IP, anti-STAT5B blot. The conditions noted are these: reference: WT T cells, IL-2 stimulated; sites Y699.

Regarding “STAT5A (from UniProt P42230) Stat5a KI (Y694F) T cells, IL-2 stimulated”, in the assay with STAT5B, the “binding against the reference” value is “lost”.
With “STAT5B (from UniProt P42232) Stat5b KI (Y699F) T cells, IL-2 stimulated”, the “binding against the reference” value with STAT5A is “lost”.
